Measurements reported in patent publication US20150344570A1 (published 2015).

T1: FcγRIIb extracellular domain with C-terminal His tag (human, UniProt P31994 43-217)
T1 construct: extracellular domain; Expressed in FreeStyle293 cells; analyte in the SPR assay; also called FcgRIIb; 2b
T1 sequence (looked up): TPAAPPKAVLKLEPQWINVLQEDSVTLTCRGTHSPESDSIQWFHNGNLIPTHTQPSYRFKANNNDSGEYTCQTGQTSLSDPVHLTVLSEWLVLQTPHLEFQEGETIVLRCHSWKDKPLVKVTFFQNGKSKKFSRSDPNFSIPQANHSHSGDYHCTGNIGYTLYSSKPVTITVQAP

B1: GpH7-A5/GpH7-B3 variant E269_02A/GpL16-k0 (He Ab) (antibody, human IgG1, kappa)
heavy 1: not shown
heavy 2: not shown
light: DIVMTQSPLSLPVTPGEPASISCQASESLVHSNRNTYLHWYLQKPGQSPQLLIYKVSNRFSGVPDRFSGSGSGTDFTLKISRVEAEDVGVYYCSQNTHVPPTFGQGTKVEIERTVAAPSVFIFPPSDEQLKSGTASVVCLLNNFYPREAKVQWKVDNALQSGNSQESVTEQDSKDSTYSLSSTLTLSKADYEKHKVYACEVTHQGLSSPVTKSFNRGEC
notes: He Ab: mutation in one H chain only
B2: GpH7-A5/GpH7-B3 variant H268_06M/GpL16-k0 (He Ab) (antibody, human IgG1, kappa)
heavy 1: not shown
heavy 2: not shown
light: B1 light
notes: as for B1
B3: GpH7-A5/GpH7-B3 variant E269_04F/GpL16-k0 (He Ab) (antibody, human IgG1, kappa)
heavy 1: not shown
heavy 2: not shown
light: B1 light
notes: as for B1
B4: GpH7-A5/GpH7-B3 variant E269_03V/GpL16-k0 (He Ab) (antibody, human IgG1, kappa)
heavy 1: not shown
heavy 2: not shown
light: B1 light
notes: as for B1
B5: GpH7-A5/GpH7-B3 variant H268_04F/GpL16-k0 (He Ab) (antibody, human IgG1, kappa)
heavy 1: not shown
heavy 2: not shown
light: B1 light
notes: as for B1
B6: GpH7-A5/GpH7-B3 variant E269_18N/GpL16-k0 (He Ab) (antibody, human IgG1, kappa)
heavy 1: not shown
heavy 2: not shown
light: B1 light
notes: as for B1
B7: GpH7-A5/GpH7-B3 variant P271_13S/GpL16-k0 (He Ab) (antibody, human IgG1, kappa)
heavy 1: not shown
heavy 2: not shown
light: B1 light
notes: as for B1
B8: GpH7-A5/GpH7-B3 variant E269_13S/GpL16-k0 (He Ab) (antibody, human IgG1, kappa)
heavy 1: not shown
heavy 2: not shown
light: B1 light
notes: as for B1
B9: GpH7-A5/GpH7-B3 variant P271_14T/GpL16-k0 (He Ab) (antibody, human IgG1, kappa)
heavy 1: not shown
heavy 2: not shown
light: B1 light
notes: as for B1
B10: GpH7-A5/GpH7-B3 variant L234_15Y/GpL16-k0 (He Ab) (antibody, human IgG1, kappa)
heavy 1: not shown
heavy 2: not shown
light: B1 light
notes: as for B1
B11: GpH7-A5/GpH7-B3 variant H268_12R/GpL16-k0 (He Ab) (antibody, human IgG1, kappa)
heavy 1: not shown
heavy 2: not shown
light: B1 light
notes: as for B1
B12: GpH7-A5/GpH7-B3 variant P271_02A/GpL16-k0 (He Ab) (antibody, human IgG1, kappa)
heavy 1: not shown
heavy 2: not shown
light: B1 light
notes: as for B1
B13: GpH7-A5/GpH7-B3 variant H268_11K/GpL16-k0 (He Ab) (antibody, human IgG1, kappa)
heavy 1: not shown
heavy 2: not shown
light: B1 light
notes: as for B1
B14: GpH7-A5/GpH7-B3 variant P271_06M/GpL16-k0 (He Ab) (antibody, human IgG1, kappa)
heavy 1: not shown
heavy 2: not shown
light: B1 light
notes: as for B1
B15: GpH7-A5/GpH7-B3 variant P271_04F/GpL16-k0 (He Ab) (antibody, human IgG1, kappa)
heavy 1: not shown
heavy 2: not shown
light: B1 light
notes: as for B1
B16: GpH7-A5/GpH7-B3 variant H268_07I/GpL16-k0 (He Ab) (antibody, human IgG1, kappa)
heavy 1: not shown
heavy 2: not shown
light: B1 light
notes: as for B1
B17: GpH7-A5/GpH7-B3 variant P271_18N/GpL16-k0 (He Ab) (antibody, human IgG1, kappa)
heavy 1: not shown
heavy 2: not shown
light: B1 light
notes: as for B1
B18: GpH7-A5/GpH7-B3 variant E269_07I/GpL16-k0 (He Ab) (antibody, human IgG1, kappa)
heavy 1: not shown
heavy 2: not shown
light: B1 light
notes: as for B1
B19: GpH7-A5/GpH7-B3 variant E269_19Q/GpL16-k0 (He Ab) (antibody, human IgG1, kappa)
heavy 1: not shown
heavy 2: not shown
light: B1 light
notes: as for B1
B20: GpH7-A5/GpH7-B3 variant E269_08L/GpL16-k0 (He Ab) (antibody, human IgG1, kappa)
heavy 1: not shown
heavy 2: not shown
light: B1 light
notes: as for B1
B21: GpH7-A5/GpH7-B3 variant E269_16H/GpL16-k0 (He Ab) (antibody, human IgG1, kappa)
heavy 1: not shown
heavy 2: not shown
light: B1 light
notes: as for B1
B22: GpH7-A5/GpH7-B3 variant P271_07I/GpL16-k0 (He Ab) (antibody, human IgG1, kappa)
heavy 1: not shown
heavy 2: not shown
light: B1 light
notes: as for B1
B23: GpH7-A5/GpH7-B3 variant E269_15Y/GpL16-k0 (He Ab) (antibody, human IgG1, kappa)
heavy 1: not shown
heavy 2: not shown
light: B1 light
notes: as for B1
B24: GpH7-A5/GpH7-B3 variant E269_05P/GpL16-k0 (He Ab) (antibody, human IgG1, kappa)
heavy 1: not shown
heavy 2: not shown
light: B1 light
notes: as for B1
B25: GpH7-A5/GpH7-B3 variant L234_04F/GpL16-k0 (He Ab) (antibody, human IgG1, kappa)
heavy 1: not shown
heavy 2: not shown
light: B1 light
notes: as for B1
B26: GpH7-A5/GpH7-B3 variant E269_14T/GpL16-k0 (He Ab) (antibody, human IgG1, kappa)
heavy 1: not shown
heavy 2: not shown
light: B1 light
notes: as for B1
B27: GpH7-A5/GpH7-B3 variant P271_12R/GpL16-k0 (He Ab) (antibody, human IgG1, kappa)
heavy 1: not shown
heavy 2: not shown
light: B1 light
notes: as for B1
B28: GpH7-A5/GpH7-B3 variant P271_11K/GpL16-k0 (He Ab) (antibody, human IgG1, kappa)
heavy 1: not shown
heavy 2: not shown
light: B1 light
notes: as for B1
B29: GpH7-A5/GpH7-B3 variant H268_14T/GpL16-k0 (He Ab) (antibody, human IgG1, kappa)
heavy 1: not shown
heavy 2: not shown
light: B1 light
notes: as for B1
B30: GpH7-A5/GpH7-B3 variant G236_02A/GpL16-k0 (He Ab) (antibody, human IgG1, kappa)
heavy 1: not shown
heavy 2: not shown
light: B1 light
notes: as for B1
B31: GpH7-A5/GpH7-B3 variant P271_03V/GpL16-k0 (He Ab) (antibody, human IgG1, kappa)
heavy 1: not shown
heavy 2: not shown
light: B1 light
notes: as for B1
B32: GpH7-A5/GpH7-B3 variant P271_15Y/GpL16-k0 (He Ab) (antibody, human IgG1, kappa)
heavy 1: not shown
heavy 2: not shown
light: B1 light
notes: as for B1
B33: GpH7-A5/GpH7-B3 variant E269_06M/GpL16-k0 (He Ab) (antibody, human IgG1, kappa)
heavy 1: not shown
heavy 2: not shown
light: B1 light
notes: as for B1
B34: GpH7-A5/GpH7-B3 variant G236_20W/GpL16-k0 (He Ab) (antibody, human IgG1, kappa)
heavy 1: not shown
heavy 2: not shown
light: B1 light
notes: as for B1
B35: GpH7-A5/GpH7-B3 variant P271_16H/GpL16-k0 (He Ab) (antibody, human IgG1, kappa)
heavy 1: not shown
heavy 2: not shown
light: B1 light
notes: as for B1
B36: GpH7-A5/GpH7-B3 variant E269_20W/GpL16-k0 (He Ab) (antibody, human IgG1, kappa)
heavy 1: not shown
heavy 2: not shown
light: B1 light
notes: as for B1
B37: GpH7-A5/GpH7-B3 variant H268_08L/GpL16-k0 (He Ab) (antibody, human IgG1, kappa)
heavy 1: not shown
heavy 2: not shown
light: B1 light
notes: as for B1

Each binder was assayed against T2, FcγRIa extracellular domain with C-terminal His tag (human, UniProt P12314 16-292) (assay: SPR (Biacore), relative binding, HeCon Ab = 100).
T2 construct: extracellular domain; Expressed in FreeStyle293 cells; analyte in the SPR assay; also called FcgRI; 1a
T2 sequence (P12314 16-292): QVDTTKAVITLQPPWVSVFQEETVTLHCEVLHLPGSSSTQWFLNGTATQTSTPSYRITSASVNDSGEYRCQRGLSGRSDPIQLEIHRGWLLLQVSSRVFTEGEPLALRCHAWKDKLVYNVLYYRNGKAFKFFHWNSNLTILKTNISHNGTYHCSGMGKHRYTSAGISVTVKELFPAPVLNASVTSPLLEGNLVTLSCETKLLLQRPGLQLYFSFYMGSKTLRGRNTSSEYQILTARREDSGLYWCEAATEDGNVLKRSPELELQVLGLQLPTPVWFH

| He/Con_1a | Binder |
| --- | --- |
| 104 % of HeCon Ab (=100) | B1 |
| 105 % of HeCon Ab (=100) | B2 |
| 103 % of HeCon Ab (=100) | B3 |
| 103 % of HeCon Ab (=100) | B4 |
| 106 % of HeCon Ab (=100) | B5 |
| 102 % of HeCon Ab (=100) | B6 |
| 102 % of HeCon Ab (=100) | B7 |
| 103 % of HeCon Ab (=100) | B8 |
| 102 % of HeCon Ab (=100) | B9 |
| 100 % of HeCon Ab (=100) | B10 |
| 106 % of HeCon Ab (=100) | B11 |
| 104 % of HeCon Ab (=100) | B12 |
| 106 % of HeCon Ab (=100) | B13 |
| 102 % of HeCon Ab (=100) | B14 |
| 102 % of HeCon Ab (=100) | B15 |
| 108 % of HeCon Ab (=100) | B16 |
| 103 % of HeCon Ab (=100) | B17 |
| 103 % of HeCon Ab (=100) | B18 |
| 105 % of HeCon Ab (=100) | B19 |

| He/Con_1a | Binder |
| --- | --- |
| 104 % of HeCon Ab (=100) | B20 |
| 106 % of HeCon Ab (=100) | B21 |
| 102 % of HeCon Ab (=100) | B22 |
| 106 % of HeCon Ab (=100) | B23 |
| 102 % of HeCon Ab (=100) | B24 |
| 101 % of HeCon Ab (=100) | B25 |
| 106 % of HeCon Ab (=100) | B26 |
| 102 % of HeCon Ab (=100) | B27 |
| 103 % of HeCon Ab (=100) | B28 |
| 112 % of HeCon Ab (=100) | B29 |
| 100 % of HeCon Ab (=100) | B30 |
| 102 % of HeCon Ab (=100) | B31 |
| 103 % of HeCon Ab (=100) | B32 |
| 104 % of HeCon Ab (=100) | B33 |
| 105 % of HeCon Ab (=100) | B34 |
| 102 % of HeCon Ab (=100) | B35 |
| 105 % of HeCon Ab (=100) | B36 |
| 107 % of HeCon Ab (=100) | B37 |

These binders were tested against T1, FcγRIIb extracellular domain with … (assay: SPR (Biacore), relative binding, HeCon Ab = 100).

| He/Con_2b | Binder |
| --- | --- |
| 49.9 % of HeCon Ab (=100) | B1 |
| 65.7 % of HeCon Ab (=100) | B2 |
| 45 % of HeCon Ab (=100) | B3 |
| 45.1 % of HeCon Ab (=100) | B4 |
| 89.6 % of HeCon Ab (=100) | B5 |
| 44.8 % of HeCon Ab (=100) | B6 |
| 87.6 % of HeCon Ab (=100) | B7 |
| 47.8 % of HeCon Ab (=100) | B8 |
| 95.4 % of HeCon Ab (=100) | B9 |
| 96.3 % of HeCon Ab (=100) | B10 |
| 89.8 % of HeCon Ab (=100) | B11 |
| 88 % of HeCon Ab (=100) | B12 |
| 83 % of HeCon Ab (=100) | B13 |
| 77.5 % of HeCon Ab (=100) | B14 |
| 59.5 % of HeCon Ab (=100) | B15 |
| 88.9 % of HeCon Ab (=100) | B16 |
| 93.3 % of HeCon Ab (=100) | B17 |
| 43.9 % of HeCon Ab (=100) | B18 |
| 44.3 % of HeCon Ab (=100) | B19 |

| He/Con_2b | Binder |
| --- | --- |
| 42.9 % of HeCon Ab (=100) | B20 |
| 38.5 % of HeCon Ab (=100) | B21 |
| 76.8 % of HeCon Ab (=100) | B22 |
| 44.7 % of HeCon Ab (=100) | B23 |
| 52.6 % of HeCon Ab (=100) | B24 |
| 99.8 % of HeCon Ab (=100) | B25 |
| 50.6 % of HeCon Ab (=100) | B26 |
| 86.5 % of HeCon Ab (=100) | B27 |
| 90.2 % of HeCon Ab (=100) | B28 |
| 86 % of HeCon Ab (=100) | B29 |
| 96.5 % of HeCon Ab (=100) | B30 |
| 74.8 % of HeCon Ab (=100) | B31 |
| 52.3 % of HeCon Ab (=100) | B32 |
| 46.7 % of HeCon Ab (=100) | B33 |
| 58.2 % of HeCon Ab (=100) | B34 |
| 67.9 % of HeCon Ab (=100) | B35 |
| 42.5 % of HeCon Ab (=100) | B36 |
| 67.8 % of HeCon Ab (=100) | B37 |
